Reference: article PMC3898472, “Molecular Basis for DNA Double-Strand Break Annealing and Primer Extension by an NHEJ DNA Polymerase”

Target: Mt-PolDom K217A (UniProt P9WNV3 1-300, K217A)
Assay: EMSA
Settings: protein: recombinant; label: 32P 5'-end label

B1: 1-nt gapped SP1C/T13C/DG-P (dsDNA)
DNA 1: AGAAGTGTATCTAGTACTCACTGTGATC
DNA 2: GATCACAGTGAGTAC
DNA 3: AGATACACTTCT
modifications: 5'-phosphate on DG
binding result: binds
